B1: Transcription factor JunD (Homo sapiens), P17535 (parent)
chain: METPFYGDEALSGLGGGASGSGGSFASPGRLFPGAPPTAAAGSMMKKDALTLSLSEQVAAALKPAAAPPPTPLRADGAPSAAPPDGLLASPDLGLLKLASPELERLIIQSNGLVTTTPTSSQFLYPKVAASEEQEFAEGFVKALEDLHKQNQLGAGAAAAAAAAAAGGPSGTATGSAPPGELAPAAAAPEAPVYANLSSYAGGAGGAGGAATVAFAAEPVPFPPPPPPGALGPPRLAALKDEPQTVPDVPSFGESPPLSPIDMDTQERIKAERKRLRNRIAASKCRKRKLERISRLEEKVKTLKSQNTELASTASLLREQVAQLKQKVLSHVNSGCQLLPQHQVPAY

Variants of: B1
Conditions: with mk10_human MAPK10, P53779
mk10_human MAPK10, P53779, sequence (P53779 whole entry): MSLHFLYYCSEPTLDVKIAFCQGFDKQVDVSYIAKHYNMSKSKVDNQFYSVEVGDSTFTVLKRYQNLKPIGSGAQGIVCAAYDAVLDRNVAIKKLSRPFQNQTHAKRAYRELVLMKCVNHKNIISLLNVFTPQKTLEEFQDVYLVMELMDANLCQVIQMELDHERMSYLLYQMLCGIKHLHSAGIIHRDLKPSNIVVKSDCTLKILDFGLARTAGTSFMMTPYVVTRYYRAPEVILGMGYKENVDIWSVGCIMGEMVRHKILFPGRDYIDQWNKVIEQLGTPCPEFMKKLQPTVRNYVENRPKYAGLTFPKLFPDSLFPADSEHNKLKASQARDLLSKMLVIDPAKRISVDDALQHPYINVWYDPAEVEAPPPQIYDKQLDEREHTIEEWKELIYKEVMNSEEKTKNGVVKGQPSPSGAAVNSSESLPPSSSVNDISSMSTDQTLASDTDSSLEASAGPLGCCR

Row | effect of a mutation on the interaction | Variant
1 | disrupting interaction strength | K46A;K47A
2 | disrupting interaction strength | L52A;L54A
